Assay results as given in the supplement of paper PMC12764529.
± gives the half width of the 95% confidence interval.

Assay: folding stability dG unfold (combined trypsin and chymotrypsin); higher = more stable
How it was run: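 How resistant each design was to proteolysis was captured as K50, inferred by Bayesian fitting of sequencing counts. Unfolding free energy was then derived relative to a sequence-predicted unfolded-state K50 and a shared folded-state K50, per protease or combined. Digestion used trypsin and chymotrypsin at 11 threefold-diluted concentrations plus a no-protease condition, on mini-proteins under 80 residues without cysteine in a PA-tagged cDNA display construct. Designs were kept only when AlphaFold2 dimer inter-PAE was above 15.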

Sequence | folding stability dG unfold [kcal/mol]
SAGGSAGNPKPVVLEVEVVLDIPPENPDVLRAQAEAVARALAKPGLRVEVLDYDPDKAAFTIRITGSAGGSA [r15_563_TrMRF] | 1.89 ± 0.077
SAGGSAGGSAGGKRTLLIRVPPGASVEQVLEELKRLLPPGAKITVELDPETRTLRVTIDSAGGSAGGSAGGS [r10_163_TrROS_Hall] | 3.89 ± 0.12
SAGGAEQAREILKEWGFEISEVDPKKKTVQVTPPESGMPISIDVDEPGQIKIKIRMNGKPRTFEIPPSAGGS [r16_197_TrROS] | -0.215 ± 0.22
SAGKIEIVEVTKNYVKIKIKNKKTNKTIEIKIPVKKKKGKKLSKEELEELAKKLAKELYPDMKIEVEKVSAG [r5_293_TrROS_Hall] | 3.31 ± 0.27
SAGGSAGGSAGGSMYIKIPGEPGDLREVVIEGKKVKVTPDANNPDKVTYTLPDGTKIALSAGGSAGGSAGGS [r4_488_JUSTAS] | 0.638 ± 0.073
SAGGSAGGSAPVFLRVEVENPNGERFELTAKLGDPIEIDPSVVDNVKVEVFDPDGNKAEFELNSAGGSAGGS [r12_380_TrMRF] | 0.506 ± 0.069
SAGGSAGGSAMKYTVTVTLPNGTTLTLDVGTETEEEAVSETKKLIAEKYPDVKGAKIDLTKESAGGSAGGSA [r18_434_JUSTAS] | 2.33 ± 0.13
SAGGSKWRMYEITLELGDKPVKITVYYMDGNYSVAIKFPPGRKVDIPFDGPMSPEDAAKKALEALGSAGGSA [r2_92_TrROS] | 3.24 ± 0.095
SAGGSAGGAPQGSTSSLTDPSTGLRYASTNPPGTSSSFTFPPSVSPEEVAARLRAQGVAGLNLSSAGGSAGG [r6_83_JUSTAS] | 0.0679 ± 0.081
SAGGSAGPMSVKEYEFEAVVPPGEEEAWVEEYIKKEFKSKIVKIEVKREKLPDGTYRVPVKITVKESAGGSA [r15_138_JUSTAS] | 0.775 ± 0.079
SAGGSAKMKITVEKNEDGELYVLIEVDSVEELEEALKKLPGIEKVEVEVFVDEETKRVYILVRVKPSAGGSA [r15_344_TrROS_Hall] | 3.26 ± 0.064
SAGGGMKLTITVTNADGSTTTETLTLGDLEKALEFLESDPTASLASIEIKPVPDTSEVEMNVSLTVPASAGG [r13_796_JUSTAS] | 1.47 ± 0.071
SAGGSAGGSMPFKIDVEVERHPEDNMYQVEITFPGNREIPIMVDDPSDPEKAKNIAKEFAKQLSAGGSAGGS [r12_1012_TrROS] | -0.0883 ± 0.13
SAGGSAMDPSKLVRKKVRFRVVDPNGKPLGEIDIEVEFPGGVSEEEAEELLRELIAALAPPAGVEGSAGGSA [r15_310_TrMRF] | 2.73 ± 0.071
SAKTLTIEELAKKLKEELEKKTGKKLSKEELKKKALELAKKLAEEKGLKIKSVKVEEKDGKLTVTVEVESAG [r14_147_TrROS_Hall] | 2.84 ± 0.15
SAGGSAGGSGVLVRITATHPDGSTEEVLEIEVPNDENDPAKLKAIAEELAKKAGMKNIKIELLSAGGSAGGS [r12_569_JUSTAS] | 2.31 ± 0.07

Sequence | folding stability dG unfold [kcal/mol]
SAGGSAGGSAGGEKTIVISEEEAEKLAKELEKKGLTVERKPDGTLKVNGKEIRIIVVEPSAGGSAGGSAGGS [r10_930_TrROS_Hall] | 0.814 ± 0.17
SAGGSAGGSGSMLPITTVTPTPDGVWKITYELPDGSTRTITVPPDDLSLSGPPSSSGSSAALASAGGSAGGS [r20_194_JUSTAS] | 0.764 ± 0.15
SAGGSAGGSAPNLEVEEQRNPDGGMEMEIIRLKNDGLTIFFMEMRPDDKTMTMLMLMPLDASAGGSAGGSAG [r3_126_TrROS] | 2.48 ± 0.19
SAGGDPSATPVVVEFTLPDGARAVATTFPSGVVVARVFNPVTGRTTEVTVTVVPESATATVTVRPNPDSAGG [r13_822_TrMRF] | 1.02 ± 0.053
SAGMTIVVEVPKKDITPEELAKKLEERFGLKVVEIKVEEVEEDKVRVTIRFEETGETLELTAEEIKELLSAG [r5_550_TrROS_Hall] | 4.19 ± 0.16
SAGGSMTISLDETIDVPEDVGVTFTFADDTVATAYFDPSEGKVRVVVYDPNKPGTLLGEFTLPVLPSAGGSA [r2_266_TrMRF] | 1.29 ± 0.11
SAGGSAPEALVFVERREDDSLTVVVLFPDGTLVTRRVEVRDEGVTVETETAPVLVIPEPGRLELALSAGGSA [r15_746_TrMRF] | 1.14 ± 0.051
SAMERVEIVVKVKVRPDMSLEELKERVERELRRLLEERGIELPEGAKITVEIVEETEDYVVVKVTIELPSAG [r14_735_TrROS_Hall] | 4.4 ± 0.32
SAGGSAGGELELELTVRLPNGLEVRIRARVKFDEETNEWTITEIEIEIRPLPPPPVLDKDGKLVSAGGSAGG [r6_506_TrROS_Hall] | 2.93 ± 0.47
SAGGSAGGSAGGETIELKLPNGKVLRVEKDKEKGKTYKIYDTKTKKLVKTFKSKEALKKASAGGSAGGSAGG [r7_72_TrROS_Hall] | 1.02 ± 0.11
SAGGSAGGSAGGQTIVIDSRLLRTALENGDLEKLKALVEEAGYNPENAKIYLITPEELKESAGGSAGGSAGG [r7_3_TrMRF] | 0.464 ± 0.055
SAGGSAGGSKVKIETVENEDGVKFERVVDEETGKTVFLAKNKKTGKLYLFVITPDGEIKVFELSAGGSAGGS [r12_474_TrROS_Hall] | 2.27 ± 0.089
SAGGPEVFVFRDPLTGTWSLAVYDPSTGLWTVTYPDGTVALYRRSGDSWELVEARPVPPAPVDPDLASAGGS [r16_687_TrMRF] | 3.54 ± 0.065
SAGGSMIEVERDPNDPNRYRARLPVIEENPPEPKLVYVDVYVDPENGLVYARAVTEDGGEAEFRFESAGGSA [r2_428_TrMRF] | 0.786 ± 0.17
SAGGSAGGSGKPLLLVRLKIRNKETGEEETVVLEADSLDEALARLPPGAEIVSIEVVRLDLPPSAGGSAGGS [r12_208_TrROS_Hall] | 5.34 ± 0.13
SAGGMLPGEPEVELVLEIEIDVPPGEISAEELERLLRELFPGAEVVDVRVEEEGGKLRIEVVIRLPPSAGGS [r8_202_TrROS_Hall] | 3.17 ± 0.13
